Patent US20190015483A1 (CSL BEHRING RECOMBINANT FACILITY, published 2019)
Where a chain is given by its changes, count along the chain named. Numbers in names are those of the source.

T1: recombinant Factor VIII (CSL627, rVIII-SingleChain) (Homo sapiens (Human), UniProt P00451 20-2351)
T1 construct: also called FVIII
T1 sequence: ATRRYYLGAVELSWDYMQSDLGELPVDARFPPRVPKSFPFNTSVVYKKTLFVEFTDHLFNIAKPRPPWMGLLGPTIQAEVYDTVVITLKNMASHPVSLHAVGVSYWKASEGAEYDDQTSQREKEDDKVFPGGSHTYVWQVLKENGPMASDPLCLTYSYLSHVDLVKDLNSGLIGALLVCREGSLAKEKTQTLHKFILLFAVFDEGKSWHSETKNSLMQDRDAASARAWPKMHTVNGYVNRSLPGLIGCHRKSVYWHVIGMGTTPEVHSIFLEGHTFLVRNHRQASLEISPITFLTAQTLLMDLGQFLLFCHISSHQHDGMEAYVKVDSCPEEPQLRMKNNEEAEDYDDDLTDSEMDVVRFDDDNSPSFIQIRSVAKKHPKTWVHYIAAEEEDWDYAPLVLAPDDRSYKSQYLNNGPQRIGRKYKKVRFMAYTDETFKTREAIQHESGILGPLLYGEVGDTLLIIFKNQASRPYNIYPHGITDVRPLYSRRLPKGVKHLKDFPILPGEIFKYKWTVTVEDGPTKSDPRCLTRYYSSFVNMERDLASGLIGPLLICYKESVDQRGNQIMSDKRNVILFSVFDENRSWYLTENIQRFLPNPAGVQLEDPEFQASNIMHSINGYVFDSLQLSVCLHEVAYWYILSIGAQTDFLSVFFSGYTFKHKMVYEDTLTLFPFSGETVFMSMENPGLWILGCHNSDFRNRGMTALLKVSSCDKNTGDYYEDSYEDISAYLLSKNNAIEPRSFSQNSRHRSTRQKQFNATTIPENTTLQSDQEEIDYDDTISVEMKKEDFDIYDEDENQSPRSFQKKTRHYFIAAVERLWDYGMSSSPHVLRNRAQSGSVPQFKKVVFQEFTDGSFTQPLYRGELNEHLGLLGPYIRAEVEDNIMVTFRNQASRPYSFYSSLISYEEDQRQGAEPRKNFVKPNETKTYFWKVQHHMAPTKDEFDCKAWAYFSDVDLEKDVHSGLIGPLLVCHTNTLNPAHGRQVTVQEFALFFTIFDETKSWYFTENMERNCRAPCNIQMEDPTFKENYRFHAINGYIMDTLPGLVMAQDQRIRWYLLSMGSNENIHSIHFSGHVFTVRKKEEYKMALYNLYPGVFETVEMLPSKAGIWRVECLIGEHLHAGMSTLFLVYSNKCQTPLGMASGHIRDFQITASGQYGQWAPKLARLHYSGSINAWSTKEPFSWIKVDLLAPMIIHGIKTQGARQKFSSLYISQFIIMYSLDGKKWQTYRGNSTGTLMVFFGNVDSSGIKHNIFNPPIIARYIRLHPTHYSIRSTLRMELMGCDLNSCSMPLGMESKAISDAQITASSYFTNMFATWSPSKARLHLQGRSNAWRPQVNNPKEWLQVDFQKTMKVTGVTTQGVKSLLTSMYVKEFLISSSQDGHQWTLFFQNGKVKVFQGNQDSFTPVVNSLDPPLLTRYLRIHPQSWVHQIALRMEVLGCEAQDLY

B1: Hu-vWF[764-1270]-8His S764P-L765I (other)
chain: PISCRPPMVKLVCPADNLRAEGLECTKTCQNYDLECMSMGCVSGCLCPPGMVRHENRCVALERCPCFHQGKEYAPGETVKIGCNTCVCRDRKWNCTDHVCDATCSTIGMAHYLTFDGLKYLFPGECQYVLVQDYCGSNPGTFRILVGNKGCSHPSVKCKKRVTILVEGGEIELFDGEVNVKRPMKDETHFEVVESGRYIILLLGKALSVVWDRHLSISVVLKQTYQEKVCGLCGNFDGIQNNDLTSSNLQVEEDPVDFGNSWKVSSQCADTRKVPLDSSPATCHNNIMKQTMVDSSCRILTSDVFQDCNKLVDPEPYLDVCIYDTCSCESIGDCACFCDTIAAYAHVCAQHGKVVTWRTATLCPQSCEERNLRENGYECEWRYNSCAPACQVTCQHPEPLACPVQCVEGCHAHCPPGKILDELLQTCVDPEDCPVCEVAGRRFASGKKVTLNPSDPEHCQICHCDVVNLTCEACQEPGGLVVPPTDAPVSPTTLYVEDISEPPLHDFHHHHHHHH
B2: Hu-vWF[764-1270]-8His S764P-S766P (other)
chain: B1 chain with I2L, S3P
B3: Hu-vWF[764-1270]-8His S764P-L765M (other)
chain: B1 chain with I2M
B4: Hu-vWF[764-1270]-8His S764P-S766T (other)
chain: B1 chain with I2L, S3T
B5: Hu-vWF[764-1270]-8His S764P-S766M (other)
chain: B1 chain with I2L, S3M
B6: Hu-vWF[764-1270]-8His S764P-S766N (other)
chain: B1 chain with I2L, S3N
B7: Hu-vWF[764-1270]-8His S766Y-K773E (other)
chain: B1 chain with P1S, I2L, S3Y, K10E
B8: Hu-vWF[764-1270]-8His S766Y-K773H (other)
chain: B1 chain with P1S, I2L, S3Y, K10H
B9: Hu-vWF[764-1270]-8His S766Y-K773A (other)
chain: B1 chain with P1S, I2L, S3Y, K10A
B10: Hu-vWF[764-1270]-8His S764P-L765V (other)
chain: B1 chain with I2V
B11: Hu-vWF[764-1270]-8His S766Y-K773G (other)
chain: B1 chain with P1S, I2L, S3Y, K10G
B12: Hu-vWF[764-1270]-8His S764P-S766E (other)
chain: B1 chain with I2L, S3E
B13: Hu-vWF[764-1270]-8His S764P-L765W (other)
chain: B1 chain with I2W
B14: Hu-vWF[764-1270]-8His S764P-S766R (other)
chain: B1 chain with I2L, S3R
B15: Hu-vWF[764-1270]-8His S766Y-K773I (other)
chain: B1 chain with P1S, I2L, S3Y, K10I
B16: Hu-vWF[764-1270]-8His S764P-S766W (other)
chain: B1 chain with I2L, S3W
B17: Hu-vWF[764-1270]-8His S766Y-K773D (other)
chain: B1 chain with P1S, I2L, S3Y, K10D
B18: Hu-vWF[764-1270]-8His S764P-S766F (other)
chain: B1 chain with I2L, S3F
B19: Hu-vWF[764-1270]-8His S766Y-K773F (other)
chain: B1 chain with P1S, I2L, S3Y, K10F
B20: Hu-vWF[764-1270]-8His S766Y-K773L (other)
chain: B1 chain with P1S, I2L, S3Y, K10L
B21: Hu-vWF[764-1270]-8His S764P-L765Y (other)
chain: B1 chain with I2Y
B22: Hu-vWF[764-1270]-8His S764P-S766D (other)
chain: B1 chain with I2L, S3D
B23: Hu-vWF[764-1270]-8His S764P-L765T (other)
chain: B1 chain with I2T
B24: Hu-vWF[764-1270]-8His S764P-S766H (other)
chain: B1 chain with I2L, S3H
B25: Hu-vWF[764-1270]-8His S764P-L765Q (other)
chain: B1 chain with I2Q
B26: Hu-vWF[764-1270]-8His S764P-S766G (other)
chain: B1 chain with I2L, S3G
B27: Hu-vWF[764-1270]-8His S764P-S766V (other)
chain: B1 chain with I2L, S3V
B28: Hu-vWF[764-1270]-8His S764P-S766Q (other)
chain: B1 chain with I2L, S3Q
B29: Hu-vWF[764-1270]-8His S764P-S766K (other)
chain: B1 chain with I2L, S3K
B30: Hu-vWF[764-1270]-8His S764P-S766A (other)
chain: B1 chain with I2L, S3A
B31: Hu-vWF[764-1270]-8His S764P-L765P (other)
chain: B1 chain with I2P
B32: Hu-vWF[764-1270]-8His S764P-S766I (other)
chain: B1 chain with I2L, S3I
B33: Hu-vWF[764-1270]-8His S764P-S766L (other)
chain: B1 chain with I2L, S3L

Target: T1, recombinant Factor VIII (CSL627, …)
Experiment: SPR, anti-His capture
Experimental: Binding kinetics were investigated by surface plasmon resonance using a Biacore 4000 biosensor at 37° C. Each mutant was captured from cell culture medium to a density of 40-150 RU on a CM-5 sensor chip pre-immobilised with anti-His antibody (14,000 RU). In an initial screening study, FVIII was injected over the captured mutants for 5 minutes at 1 nM and dissociation monitored for 5 minutes.
All sensorgrams were double referenced by subtraction of signals from a reference spot (containing only immobilised anti His antibody) and from a blank injection. Binding kinetics were determined by fitting the double referenced sensorgrams to a 1:1 kinetic model.

Kd [nM] | koff [s⁻¹] | kon [M⁻¹ s⁻¹] | fold decrease in off-rate against wild type vWF [fold] | fold increase in affinity against wild type vWF [fold] | Binder
0.0118 | 9.52e-05 | 8.08e+06 | – | – | B1
0.0848 | 0.00217 | 2.56e+07 | – | – | B2
0.0243 | 0.000237 | 9.76e+06 | – | – | B3
0.0116 | 0.000105 | 9.01e+06 | – | – | B4
0.00488 | 5.76e-05 | 1.18e+07 | – | – | B5
0.0104 | 9.14e-05 | 8.82e+06 | – | – | B6
0.261 | 0.00481 | 1.84e+07 | – | – | B7
0.114 | 0.0062 | 5.47e+07 | – | – | B8
0.0651 | 0.00122 | 1.88e+07 | – | – | B9
0.355 | 0.0022 | 6.19e+06 | – | – | B10
0.0327 | 0.00197 | 6.02e+07 | – | – | B11
0.016 | 0.000128 | 8.04e+06 | – | – | B12
0.645 | 0.00514 | 7.97e+06 | – | – | B13
0.00921 | 0.000119 | 1.29e+07 | – | – | B14
0.071 | 0.000569 | 8.02e+06 | – | – | B15
0.00727 | 8e-05 | 1.1e+07 | – | – | B16
0.343 | 0.0427 | 1.25e+08 | – | – | B17

Kd [nM] | koff [s⁻¹] | kon [M⁻¹ s⁻¹] | fold decrease in off-rate against wild type vWF [fold] | fold increase in affinity against wild type vWF [fold] | Binder
0.00741 | 0.0001 | 1.35e+07 | – | – | B18
0.158 | 0.00324 | 2.05e+07 | – | – | B19
0.0192 | 0.000345 | 1.79e+07 | – | – | B20
0.355 | 0.0022 | 6.19e+06 | – | – | B21
0.0127 | 0.00012 | 9.41e+06 | – | – | B22
0.634 | 0.00882 | 1.39e+07 | – | – | B23
0.00676 | 9.47e-05 | 1.4e+07 | – | – | B24
0.88 | 0.00714 | 8.12e+06 | – | – | B25
0.0217 | 0.000388 | 1.79e+07 | – | – | B26
0.0956 | 7.82e-05 | 819000 | – | – | B27
0.0102 | 0.000123 | 1.2e+07 | – | – | B28
0.014 | 0.000301 | 2.15e+07 | – | – | B29
0.0123 | 0.000166 | 1.35e+07 | – | – | B30
0.0238 | 0.000242 | 1.02e+07 | – | – | B31
0.00523 | 5.14e-05 | 9.84e+06 | 22 | 30 | B32
0.00606 | 8.74e-05 | 1.44e+07 | – | – | B33
